Assay results reported in PMC6491619, “Development and application of a high-content virion display human GPCR array” (Nature Communications, 2019).
No end group written: not given here.

Experiments:
Assay in all cases: virion-oscillator (plasmonic imaging, SPR read-out); VirD-GPCR virions tethered to a gold chip by a PEG linker and driven by a sinusoidal potential (5 Hz); label-free SRIF-14 perfused at several doses; first-order kinetics model
Conditions in all cases: one partner purified
[1] = target: T1, VirD-NTSR1 (human, UniProt P30989 1-418)
T1 construct: source: recombinant HSV-1 (UL27 locus); virions from infected cells (in most cases Vero), purified by sucrose cushion; also on infected Vero cells; not shown: V5, C-terminal, kept

[2] = target: T2, VirD-KISS1R (human, UniProt Q969F8 1-398)
T2 construct: source: recombinant HSV-1 (UL27 locus); virions from infected cells (in most cases Vero), purified by sucrose cushion; also on infected Vero cells; not shown: V5, C-terminal, kept

[3] = target: T3, VirD-GABBR2 (human, UniProt O75899 42-941)
T3 construct: source: recombinant HSV-1 (UL27 locus); virions from infected cells (in most cases Vero), purified by sucrose cushion; also on infected Vero cells; not shown: V5, C-terminal, kept
T3 sequence: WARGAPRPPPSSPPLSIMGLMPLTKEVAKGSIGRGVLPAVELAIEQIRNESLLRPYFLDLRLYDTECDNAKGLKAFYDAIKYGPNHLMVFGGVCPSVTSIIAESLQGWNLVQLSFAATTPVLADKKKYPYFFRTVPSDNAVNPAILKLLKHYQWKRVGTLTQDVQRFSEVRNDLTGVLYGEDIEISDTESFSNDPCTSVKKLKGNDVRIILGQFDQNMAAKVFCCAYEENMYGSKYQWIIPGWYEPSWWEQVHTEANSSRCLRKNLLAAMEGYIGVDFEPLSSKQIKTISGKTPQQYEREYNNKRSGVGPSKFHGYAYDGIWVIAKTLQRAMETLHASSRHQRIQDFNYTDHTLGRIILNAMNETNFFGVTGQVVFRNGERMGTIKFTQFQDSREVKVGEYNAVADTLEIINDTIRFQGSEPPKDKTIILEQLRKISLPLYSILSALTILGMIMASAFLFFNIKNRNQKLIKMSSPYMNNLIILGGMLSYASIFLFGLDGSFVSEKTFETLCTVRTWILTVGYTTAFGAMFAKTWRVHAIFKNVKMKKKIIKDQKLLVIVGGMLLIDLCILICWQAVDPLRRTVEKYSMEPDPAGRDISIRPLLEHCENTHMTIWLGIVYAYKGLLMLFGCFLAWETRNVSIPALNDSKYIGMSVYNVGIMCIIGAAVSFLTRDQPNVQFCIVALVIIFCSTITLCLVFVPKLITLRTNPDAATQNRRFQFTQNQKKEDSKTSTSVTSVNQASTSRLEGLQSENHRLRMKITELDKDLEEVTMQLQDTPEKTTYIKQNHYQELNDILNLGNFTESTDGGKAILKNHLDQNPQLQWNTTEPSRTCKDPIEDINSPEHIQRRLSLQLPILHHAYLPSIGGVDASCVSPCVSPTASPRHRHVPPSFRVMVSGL

T1 sequence (P30989 whole entry): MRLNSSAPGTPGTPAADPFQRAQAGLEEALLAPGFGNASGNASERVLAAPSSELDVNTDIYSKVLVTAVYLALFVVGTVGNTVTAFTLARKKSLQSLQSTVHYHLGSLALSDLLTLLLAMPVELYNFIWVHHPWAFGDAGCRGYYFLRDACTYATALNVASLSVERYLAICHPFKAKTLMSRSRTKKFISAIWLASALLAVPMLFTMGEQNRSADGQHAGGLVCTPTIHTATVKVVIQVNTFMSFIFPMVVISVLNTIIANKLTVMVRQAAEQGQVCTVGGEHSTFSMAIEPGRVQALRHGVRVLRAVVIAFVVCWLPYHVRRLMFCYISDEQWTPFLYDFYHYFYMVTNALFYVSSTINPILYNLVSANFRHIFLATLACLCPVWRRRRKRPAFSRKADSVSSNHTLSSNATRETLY
T2 sequence (Q969F8 whole entry): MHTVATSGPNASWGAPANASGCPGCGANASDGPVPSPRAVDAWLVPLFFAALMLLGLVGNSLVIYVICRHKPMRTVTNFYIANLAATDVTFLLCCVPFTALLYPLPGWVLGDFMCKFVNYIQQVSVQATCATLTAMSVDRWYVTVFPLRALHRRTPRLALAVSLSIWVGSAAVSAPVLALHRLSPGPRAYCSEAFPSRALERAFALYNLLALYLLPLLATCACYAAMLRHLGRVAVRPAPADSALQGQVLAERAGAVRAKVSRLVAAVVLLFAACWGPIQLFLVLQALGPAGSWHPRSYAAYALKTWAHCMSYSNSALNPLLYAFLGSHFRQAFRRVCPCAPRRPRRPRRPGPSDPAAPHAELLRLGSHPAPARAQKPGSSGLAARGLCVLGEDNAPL

B1: somatostatin-14 (SRIF-14), unlabeled (peptide)
peptide: AGCKNFFWKTFTSC
modifications: not fully specified (bridges); ends and bridges not checked
notes: somatostatin-14 (SRIF-14), cut product of the somatostatin precursor; also called cold SRIF-14; SIRF-14; source: bought: AnaSpec (peptide)
[1]
  Kd: 2.6 µM
[2]
  Kd: 25 µM
[3]
  Kd: 0.4 µM
